For two substances, OD (ELISA signal), Bioactivity (binding) and Potency determined by BLI assay results are on record in patent US20190361034A1.

Experiment [1] deals with MHC class II molecules on MHC class II-expressing Raji cells (human). Briefly: transfer cell ELISA, Raji cells; 125 ng/ml; plate row C.
Experiment [2] has the same target. Briefly: transfer cell ELISA, Raji cells; 125 ng/ml; plate row D.
Experiment [3] has the same target. Briefly: transfer cell ELISA, Raji cells; 250 ng/ml; plate row C.
Experiment [4] shares this target. Briefly: transfer cell ELISA, Raji cells; 500 ng/ml; plate row C.
For experiment [5] the target is unchanged. Briefly: transfer cell ELISA, Raji cells; 1000 ng/ml; plate row C.
Experiment [6] has the same target. Briefly: transfer cell ELISA, Raji cells; 1000 ng/ml; plate row D.
Experiment [7] has the same target. Briefly: transfer cell ELISA, Raji cells; 0.977 ng/ml; plate row C.
Experiment [8] shares this target. Briefly: transfer cell ELISA, Raji cells; 0.977 ng/ml; plate row D.
Experiment [9] has the same target. Briefly: transfer cell ELISA, Raji cells; 31.25 ng/ml; plate row D.
For experiment [10] the target is unchanged. Briefly: direct ELISA, plate-immobilised Raji cells; 5% BSA, 2,500 cells; 250 ng/ml.
For experiment [11] the target is unchanged. Briefly: direct ELISA, plate-immobilised Raji cells; 5% BSA, 2,500 cells; 500 ng/ml.
For experiment [12] the target is unchanged. Briefly: direct ELISA, plate-immobilised Raji cells; 10% FBS, 2,500 cells; 500 ng/ml.
The target is the same in experiment [13]. Briefly: direct ELISA, plate-immobilised Raji cells; 10% FBS, 5,000 cells; 125 ng/ml.
For experiment [14] the target is unchanged. Briefly: direct ELISA, plate-immobilised Raji cells; 10% FBS, 5,000 cells; 250 ng/ml.
Experiment [15] has the same target. Briefly: direct ELISA, plate-immobilised Raji cells; 10% FBS, 10,000 cells; 250 ng/ml.
The target is the same in experiment [16]. Briefly: direct ELISA, plate-immobilised Raji cells; 10% FBS, 10,000 cells; 500 ng/ml.
Experiment [17] has the same target. Briefly: direct ELISA, plate-immobilised Raji cells; 5% BSA, 5,000 cells; 15.625 ng/ml.
The target is the same in experiment [18]. Briefly: direct ELISA, plate-immobilised Raji cells; 10% FBS, 2,500 cells; 15.625 ng/ml.
For experiment [19] the target is unchanged. Briefly: direct ELISA, plate-immobilised Raji cells; 10% FBS, 5,000 cells; 15.625 ng/ml.
Experiment [20] has the same target. Briefly: transfer cell ELISA, Raji cells; 125 ng/ml.
For experiment [21] the target is unchanged. Briefly: transfer cell ELISA, Raji cells; 1000 ng/ml.
The target is the same in experiment [22]. Briefly: transfer cell ELISA, Raji cells; 3.906 ng/ml.
The target is the same in experiment [23]. Briefly: transfer cell ELISA, Raji cells; 31.25 ng/ml.
The target is the same in experiment [24]. Briefly: BLI; immobilised sample, Raji cells in solution; dark control of FIG. 24.
Experiment [25] has the same target. Briefly: BLI; immobilised sample, Raji cells in solution; pH 7.0 control of FIG. 20.
Experiment [26] shares this target. Briefly: direct ELISA, plate-immobilised Raji cells; 3% gelatin, 2,500 cells; 125 ng/ml.
The target is the same in experiment [27]. Briefly: direct ELISA, plate-immobilised Raji cells; 3% gelatin, 2,500 cells; 500 ng/ml.
The target is the same in experiment [28]. Briefly: direct ELISA, plate-immobilised Raji cells; 3% gelatin, 10,000 cells; 125 ng/ml.
Experiment [29] has the same target. Briefly: direct ELISA, plate-immobilised Raji cells; 3% gelatin, 5,000 cells; 62.5 ng/ml.
Experiment [30] has the same target. Briefly: direct ELISA, plate-immobilised Raji cells; 0.5% Casein, 5,000 cells; 62.5 ng/ml.
For experiment [31] the target is unchanged. Briefly: direct ELISA, plate-immobilised Raji cells; 3% gelatin, 10,000 cells; 1000 ng/ml.
For experiment [32] the target is unchanged. Briefly: BLI; IMP321 sample at 125% binding potency, Raji cells in solution; relative to reference standard.
Experiment [33] shares this target. Briefly: BLI; IMP321 sample at 150% binding potency, Raji cells in solution; relative to reference standard.
The target is the same in experiment [34]. Briefly: BLI; IMP321 sample diluted from reference standard to 75% binding potency, Raji cells in solution; relative to reference standard.

Consider “IMP321 treated with Peptide-N-Glycosidase F (PNGase F) (Fc fusion)”, for which the OD (ELISA signal) was determined as 0.166 OD in experiment [1]; 0.206 OD in [2]; 0.276 OD in [3]; 0.642 OD in experiment [4]; 0.878 OD in experiment [5]; 1.13 OD in experiment [6]. Also, the OD (ELISA signal) in [7] came to 0.01 OD; in [8] it was 0.01 OD; in [9], 0.049 OD; in [10], 0.893 OD; in experiment [11] it was 1.32 OD; in experiment [12] it was 1.8 OD. Also, the OD (ELISA signal) came to 0.443 OD in experiment [13]; 0.939 OD in experiment [14]; 0.762 OD in experiment [15]; 1.35 OD in experiment [16]; 0.274 OD in experiment [17]; 0.27 OD in experiment [18]. This substance displayed an OD (ELISA signal) in experiment [19] of 0.327 OD.

Turning to “IMP321, recombinant soluble human LAG-3Ig fusion protein (Fc fusion)”, the OD (ELISA signal) in experiment [20] worked out at 0.475 OD; in experiment [21], 2.03 OD; in [22], 0.034 OD; in [23] it was 0.159 OD; in experiment [26], 0.77 OD; in experiment [27], 2.56 OD. Also, the OD (ELISA signal) turned out to be 0.688 OD in experiment [28], 0.464 OD in [29], 0.131 OD in [30] and 1.97 OD in experiment [31]. Moreover, the values for the Bioactivity (binding) in experiment [24] and in [25] were 100% and 126%, respectively. Also, the Potency determined by BLI assay in experiment [32] is 135%; in experiment [33], 150%; in experiment [34], 80%.
